Here are results for 37 variants from paper PMC7954794 (2021).

B1: S. cerevisiae Abp1 (full length; SH3 domain 535-592 mutated) / Hua2 (parent complex)
chain 1: MALEPIDYTTHSREIDAEYLKIVRGSDPDTTWLIISPNAKKEYEPESTGSSFHDFLQLFDETKVQYGLARVSPPGSDVEKIIIIGWCPDSAPLKTRASFAANFAAVANNLFKGYHVQVTARDEDDLDENELLMKISNAAGARYSIQTSSKQQGKASTPPVKKSFTPSKSPAPVSKKEPVKTPSPAPAAKISSRVNDNNDDDDWNEPELKERDFDQAPLKPNQSSYKPIGKIDLQKVIAEEKAKEDPRLVQKPTAAGSKIDPSSDIANLKNESKLKRDSEFNSFLGTTKPPSMTESSLKNDDDKVIKGFRNEKSPAQLWAERKAKQNSGNAETKAEAPKPEVPEDEPEGEPDVKDLKSKFEGLAASEKEEEEMENKFAPPPKKSEPTIISPKPFSKPQEPVKAEEAEQPKTDYKKIGNPLPGMHIEADNEEEPEENDDDWDDDEDEAAQPPLPSRNVASGAPVQKEEPEQEEIAPSLPSRNSIPAPKQEEAPEQAPEEEIEEEAEEAAPQLPSRSSAAPPPPPRRATPEKKPKENPWATAEYDYDAAEDNELTFVENDKIINIEFVDDDWWLGELEKDGSKGLFPSNYVSLGN
chain 2: MQQTKFGKMYLDHDSVVEYSEDEIVEADRITLGYKKRLSMIENQMRHLLEDFSLDVQQIEPILADLQKYYDAFLQLLQKRNKSLQCKRSTHQPVPSPMNSQTSTNAKVNLSGKLMKFQLNSVQKFDEENILRILQNKIEFEHYFQIDKGKKQKVLLLAVYQCLNGPTRLHKVLNIEGIIHNNSIRTILGKQVSSSKWTVFLYDVKLVLLAHRQDVPNLETSKMIVRYGDLFPCALYFKDHTAY

In the test the parent is B1. Put plainly: DHFR protein-fragment complementation in yeast (Abp1-DHFR F[1,2] x partner-DHFR F[3]), deep mutational scanning, second methotrexate selection vs reference; S. cerevisiae, DHFR-PCA selection in liquid with methotrexate at 30 C, two 72 h selections (the score uses the second); reference = the pre-selection culture.
For the variant chain 1 N549K, the screen value is -0.863 DMS score: mean over two replicates of log2(f_test/f_ref + 0.5)/ln 2, minus the synonymous-codon median (not a log2 ….
chain 1 N549V: the screen value was 1.32 DMS score: mean over two replicates of log2(f_test/f_ref + 0.5)/ln 2, minus the synonymous-codon median (not a log2 ….
The figure for chain 1 A545K is 0.224 DMS score: mean over two replicates of log2(f_test/f_ref + 0.5)/ln 2, minus the synonymous-codon median (not a log2 ….
The figure for chain 1 L574N is 0.59 DMS score: mean over two replicates of log2(f_test/f_ref + 0.5)/ln 2, minus the synonymous-codon median (not a log2 …; for chain 1 N561D it is -0.211 DMS score: mean over two replicates of log2(f_test/f_ref + 0.5)/ln 2, minus the synonymous-codon median (not a log2 …; for chain 1 L571F it is 0.614 DMS score: mean over two replicates of log2(f_test/f_ref + 0.5)/ln 2, minus the synonymous-codon median (not a log2 ….
As to chain 1 L571E, the screen value is 1.04 DMS score: mean over two replicates of log2(f_test/f_ref + 0.5)/ln 2, minus the synonymous-codon median (not a log2 ….
As for chain 1 Y587A, the figure is -2.26 DMS score: mean over two replicates of log2(f_test/f_ref + 0.5)/ln 2, minus the synonymous-codon median (not a log2 …; as for chain 1 Y587F, -0.234 DMS score: mean over two replicates of log2(f_test/f_ref + 0.5)/ln 2, minus the synonymous-codon median (not a log2 …; as for chain 1 W536F, -0.302 DMS score: mean over two replicates of log2(f_test/f_ref + 0.5)/ln 2, minus the synonymous-codon median (not a log2 ….
The figure for chain 1 W536T is -0.062 DMS score: mean over two replicates of log2(f_test/f_ref + 0.5)/ln 2, minus the synonymous-codon median (not a log2 …; for chain 1 W536S it is -0.564 DMS score: mean over two replicates of log2(f_test/f_ref + 0.5)/ln 2, minus the synonymous-codon median (not a log2 …; for chain 1 S585R it is -1.55 DMS score: mean over two replicates of log2(f_test/f_ref + 0.5)/ln 2, minus the synonymous-codon median (not a log2 ….
As for chain 1 K576N, the figure is -0.58 DMS score: mean over two replicates of log2(f_test/f_ref + 0.5)/ln 2, minus the synonymous-codon median (not a log2 ….
For chain 1 K576S, the screen value is -0.288 DMS score: mean over two replicates of log2(f_test/f_ref + 0.5)/ln 2, minus the synonymous-codon median (not a log2 ….
Regarding chain 1 F553I, the screen value was 0.88 DMS score: mean over two replicates of log2(f_test/f_ref + 0.5)/ln 2, minus the synonymous-codon median (not a log2 ….
Regarding chain 1 E547N, the screen value was -1.94 DMS score: mean over two replicates of log2(f_test/f_ref + 0.5)/ln 2, minus the synonymous-codon median (not a log2 ….
With chain 1 E555G, the screen value was -0.256 DMS score: mean over two replicates of log2(f_test/f_ref + 0.5)/ln 2, minus the synonymous-codon median (not a log2 ….
As for chain 1 E555S, the figure is 0.724 DMS score: mean over two replicates of log2(f_test/f_ref + 0.5)/ln 2, minus the synonymous-codon median (not a log2 ….
Take chain 1 E555D: the screen value is -1 DMS score: mean over two replicates of log2(f_test/f_ref + 0.5)/ln 2, minus the synonymous-codon median (not a log2 ….
For chain 1 T538F, the screen value was 0.0744 DMS score: mean over two replicates of log2(f_test/f_ref + 0.5)/ln 2, minus the synonymous-codon median (not a log2 ….
For chain 1 T538E, the screen value was -0.61 DMS score: mean over two replicates of log2(f_test/f_ref + 0.5)/ln 2, minus the synonymous-codon median (not a log2 ….
As for chain 1 I560Q, the figure is -0.419 DMS score: mean over two replicates of log2(f_test/f_ref + 0.5)/ln 2, minus the synonymous-codon median (not a log2 ….
For the variant chain 1 K580I, the screen value is -0.165 DMS score: mean over two replicates of log2(f_test/f_ref + 0.5)/ln 2, minus the synonymous-codon median (not a log2 ….
The figure for chain 1 K580C is -0.508 DMS score: mean over two replicates of log2(f_test/f_ref + 0.5)/ln 2, minus the synonymous-codon median (not a log2 …; for chain 1 E563C it is -0.992 DMS score: mean over two replicates of log2(f_test/f_ref + 0.5)/ln 2, minus the synonymous-codon median (not a log2 …; for chain 1 E563I it is -1.57 DMS score: mean over two replicates of log2(f_test/f_ref + 0.5)/ln 2, minus the synonymous-codon median (not a log2 ….
The figure for chain 1 Y541Q is -2.54 DMS score: mean over two replicates of log2(f_test/f_ref + 0.5)/ln 2, minus the synonymous-codon median (not a log2 …; for chain 1 D548L it is -0.0418 DMS score: mean over two replicates of log2(f_test/f_ref + 0.5)/ln 2, minus the synonymous-codon median (not a log2 ….
On to chain 1 D568T, for which the screen value is -2.96 DMS score: mean over two replicates of log2(f_test/f_ref + 0.5)/ln 2, minus the synonymous-codon median (not a log2 ….
In the case of chain 1 S579V, the screen value is -0.988 DMS score: mean over two replicates of log2(f_test/f_ref + 0.5)/ln 2, minus the synonymous-codon median (not a log2 ….
With chain 1 E550Q, the screen value is -2.17 DMS score: mean over two replicates of log2(f_test/f_ref + 0.5)/ln 2, minus the synonymous-codon median (not a log2 ….
The figure for chain 1 D566K is -2.34 DMS score: mean over two replicates of log2(f_test/f_ref + 0.5)/ln 2, minus the synonymous-codon median (not a log2 …; for chain 1 E575A it is 0.223 DMS score: mean over two replicates of log2(f_test/f_ref + 0.5)/ln 2, minus the synonymous-codon median (not a log2 …; for chain 1 A546D it is 0.862 DMS score: mean over two replicates of log2(f_test/f_ref + 0.5)/ln 2, minus the synonymous-codon median (not a log2 ….
As to chain 1 A546K, the screen value was -0.851 DMS score: mean over two replicates of log2(f_test/f_ref + 0.5)/ln 2, minus the synonymous-codon median (not a log2 ….
The figure for chain 1 V565C is 0.907 DMS score: mean over two replicates of log2(f_test/f_ref + 0.5)/ln 2, minus the synonymous-codon median (not a log2 ….
